Laboratory results taken from the DeepSol protein solubility set.

Test: soluble on expression in E. coli; label from the status in PepcDB or PDB records

Soluble on expression in E. coli, soluble:
MLNSRRIVVVLPAYNAEKTLEMTYAEIPFEHVDHVLLVDDASRDRTAQVAERLGIKTIVHDRNKGYGANQKTCYRAALDLGADIVIMVHPDYQYTPKLITAMAAMIAYGEFDAVLGSRILGIGALKGGMPLYKYVANRVLTLVENLLLSHKLSEYHTGYRAFSRQVLEQLPLDANGDDFVFDNQMLAQIIWHGYRIGELSCPTKYFEDASSINFRRSVIYGLGVLGTALEFRLARMGLIRSGRFTPRNDQAAAQLEHHHHHH
MGHHHHHHGGHMSLKVLDFPSSKKAKELAVKYGYDEFIVRRWLHFFGDETEDIIRAFEEGIPKYIRINTLKIDEKGLLERLESRGFKLKKTEVPYCFEVVEEPYSIGATPEYLMGYYYVMDKSSCIPPLALEPKPGEVVVDLAASPGGKTTFLSMLMENKGAVIAVEPQKERLQPLIDNINRMGAMNVAVINVDGRRVPAMGIKADRVLLDAPCTGEGIIHKDPSRKTDRGKEDILFCSSLQRELVLAAFDCLKEGGVMVYSTCSLTPEENEFVVDFLLERRKGVVEEIEWGDEALALPGVKNEVSKARRFYPHRHQCSGFFVARIRKVGDSKAKPEEGGS
GSSGSSGMGNSKSGALSKEILEELQLNTKFSEEELCSWYQSFLKDCPTGRITQQQFQSIYAKFFPDTDPKAYAQHVFRSFDSNLDGTLDFKEYVIALHMTTAGKTNQKLEWAFSLYDVDGNGTISKNEVLEIVMAIFKMITPEDVKLLPDDENTPEKRAEKIWKYFGKNDDDKLTEKEFIEGTLANKEILRLIQFEPQKVKEKMKNA
MSLGSGHMIGVDVGETRVRVELFDLSLAELARTERPLAHKGRQAYDVGVIVGHIRDGVAEVLAAAGITAGELLGVGIGVPGIVERSGEGGAVVHGQTIGWDAVPLEHMLRLSGQLPEHVPYFIDNGAKTLGQAEMWFGAGRGAHNAVVVLFGSGVGACVVTDEVEHGRAVEWGHLTVRVQGRRCRCGALGCLEAYAGAEALLARWQEAGGQPPYDTDEETALTAMLAAAYPEDGRAPDPVAAAVLAETAEYLGAGLSDLINLFQPERILVGGWAGLQLGSRFLESVRTHALAYALRYPAGRVGIELGRLGPDAVTVGAAILPLADFFAHGGRRAEGHHHHHH
MSLQTWIWYPGDYEIWLGNRMNNRRTERGAFFPPFWKTDSHYVVVEFSKKLDLAEPEEIFIAAEGKYNVKLDGKLQFGMPSTLKLPAGKHSLNIKVWNQSTPPTIYVKGKTVNTDKTWKVTYEDKEWIDESGKASDTSATVYMDAGCWNFDGATQLPSKFSLARKPMKAVSSTPRKEGVLYDFGKETFGYITLKEVKGKGTIHIYYGESPEEALDTEYCETLDKLLAEPGQITDLAIRNTRKLYDEYTLDNSKAFRYVYVTCDPGVTIQDVSMQYEYLPEEYRGSFKCNDEELNRIWEVGAYTMHLTTREFFIDGIKRDRWVWSGDAIQSYLMNYYLFFDNETVKRTIWLLRGKDPVTSHSNTIMDYTFYWFLSIYDYYMYSGDKDFVTQLYPRMQSMMDYVLGRTNANGMVEGMTGDWVFVDWADGYLDKKGELSFEQVLFCKSLETMALCAGLAGNTADKTKYEKLASALRSKLEPAFWNEQKQAMVHNRVQGKQSESVTRYANMFSVFFNYLNADKQQTIKHSVLQNDSILKITTPYMRFYELEALCALGEQESVMKEMKAYWGGMLKEGATSFWEKYNPEETGTRHLAMYGRPYGKSLCHAWGASPIYLLGKYYLGVKPTKPGYEEYSVTPCLGGLKWMEGTVPTPYGNIHIYMDKKEIRIKSDGGKGVLNIPTRKGMKAMTIEPGEEQVFKYEGHHHHHH
SIRTSFIKLPGSDGSRYCDSWRLAAETNNVGTWDLIPSICVDSVAEYLNGDQFLSDYSVIVDYALAFAKSVEISGDGKDVWIFDIDETLLTNIDYYKAHGYGSEPYDDNKFSEWVEQGTAPAFDASLRLYNALKKLGFTIILLTGRDEHQRTSTETNLRDAGYSGWERLLLRGPNDQGKSATNYKSEQRSKLIEEGFKIRGNSGDQWSDLQGFAVADRSFKVPNPMYYIP
SETETKTLPLENASILSEGSLQEGHRLWIGNLDPKITEYHLLKLLQKFGKVKQFDFLFHKSGALEGQPRGYCFVNFETKQEAEQAIQCLNGKLALSKKLVVRWAHAQVKRYDHNKNDKILPISLEPSSSTEPAQSNLSVTAKIKAIEAKLKMMAENPDAEYPAAPVYSYFKPPDKKRTTPYSRTAWKSRR
SNAMRMIDIIEKKRDGHTLTTEEINFFIGGYVKGDIPDYQASSLAMAIYFQDMNDDERVALTMAMVNSGDMIDLSDIKGVKVDKHSTGGVGDTTTLVLAPLVAAVDVPVAKMSGRGLGHTGGTIDKLEAIDGFHVEIDEATFVKLVNENKVAVVGQSGNLTPADKKLYALRDVTGTVNSIPLIASSIMSKKIAAGADAIVLDVKTGSGAFMKTLEDAEALAHAMVRIGNNVGRNTMAIISDMNQPLGRAIGNALELQEAIDTLKGQGPKDLTELVLTLGSQMVVLANKAETLEEARALLIEAINSGAALEKFKTFIKNQGGDETVIDHPERLPQAQYQIEYKAKKSGYVTELVSNDIGVASMMLGAGRLTKEDDIDLAVGIVLNKKIGDKVEEGESLLTIHSNRQDVDDVVKKLDSSITIADHVVSPTLIHKIITE

Soluble on expression in E. coli, not soluble:
MGILFMSKVGLRGDRRSEGDEVLDPLRQALDSSMQSHNLYQHPQHLAFHVSAPVASTVQQASGLLGPLPHLSSFALQPAHSLLPPLGSHGAGFQENGAKAES
MAHHHHHHMETTAEEISAMLNENEHALIGELQGKYDFINFNEMKNYKEKKLHHELTLEVQKFINNKNVQVKDKFRLFYTLLSPLMSKLKKTIYAELLYIVTANFDANWTISYLKESEKNLENDKDAIIIYRCILILKYIELGDFKSCENEIENTKNLLQGVIGLNVVAHKFYNFAIMKYYNVLNKSDLFVKYALLYLAYTPLNDLDEADKIEIGTHICMHSIISEDVYNIGEIIQLPLINVCLKNNEQTNWLYQLIYIYNEGNIEVFNQVVHKYEENIKNSLLKDYKKNMIKKITLLALMDLAFKKKKQRSDISFEEIAQHCKVDVNEVEKMLITAKSKNILTCQIDEIQKSVKITWVKPRVLNNEKIFFMKESIDKWITHSKNLLTYMEDLSVELLIS
MSRDLPSLNALRAFEAAARLHSISLAAEELHVTHGAVSRQVRLLEDDLGVALFGKDGRGVKLTDSGVRLRDACGDAFERLRGVCAELRRQTAEAPFVLGVPGSLLARWFIPRLDQLNRALPDLRLQLSTSEGEFDPRRPGLDAMLWFAEPPWPADMQVFELAPERMGPVVSPRLAQETGLAQAPAARLLQEPLLHTASRPQAWPAWAASQGLAAEALRYGQGFEHLYYLLEAAVAGLGVAIAPEPLVRDDLAAGRLAAPWGFIETDARLALWVPARLHDPRAGRLAQWLREQLAG
MGSDKIHHHHHHMQANKNIQKLTPYLSIPHKIWNSSQSNILKLDWNEATIPPSPYVIESIKKFLVNGNLNWYPNTKNLYLLDKIAEYTKQINSSFVELFEGSDSAHECIIDVFLDKCDKIGIVSPTYDNFRSRANGVGIETISFTLDDNFNLDFDSLEYFIHEKRIKLLYLCNPNNPTGKSYNIQKIKSLIINNPNVMFIIDEAYYEFTSQSVCDLVEQCNNLIITRTFSKAFALASFRIGYIISHPENIESINKLRNPKSVPMLSQIAANAALEDLQYMRDYVDEVSCARMEFVKFLNTLTTGGGGIFNDSVANFVLIQNENISLFVGFLEKEGIFIRNYSHLISKNCRISIGTRNQMSYVAEKIQEFAKKQGGFHLV
MNLASQISQAKTGNATMEWAKNYVSKLNDGQLALLQKMYADHQAKLKASEDEKKKKEMEELKMKAQQQAILDSLTQQIPIMVDVLRSSTSPDSQPSSSSSVMSSTDEDQITVKDVLIGKINKAQRQSSPNSSKPYTPRGIRERVLFDEHLYVFDKCSYDSKKRFFRCERKNTCPARIHTPFDAERVIHKVQVHNHPPPTTFDLAHYNIDYGKVKSGHILSLNGPQQTKNLLPPSLLTPKSDLEDETLSTKTEQKNASTMNILLSMTNNCDGRKPITLRLPDLFNKISEMEIHDMEMTLTKFLLENRELRTDLISRNGDLPVFFPNAHNDELVLFVADQHENDSVFQMIRVSERNEKSIRQAIQEHLQKVSNRSLMMNISSKINVPLSQQMIDQWRTEEFIRLDSSKPNFWKIHHVSKLQD
MAHHHHHHMLRRHFQLFLRRTPLWLADDGSSLFERYTEIENSNERRMSALKACGMFDDEWIATEKVHGANFGIYSIEGEKTIRYAKRSGIMHPTEHFFGYHMLVPQLQQYITVTREMLCDKLQKKLHTVLINGELFGGKYDHPSLQKTRKTVMVAGKPRTISAVQTDSFPQYSPDLHFYAFDIKYKETNEAEYVTLTFDDATELFKRVPGLLYARAIIRGPMSKVAAFDVEHFVTTIPPLVGMGNYPLKGNWAEGLVVKHAKRGTPGFDPKGLTILKFKCTAFQEISTDRRQGPRVDEMESVRRDSISRSGIQLPALESIIHDPVQLEASKFLLDHICENRLNAVLSKIGTDPFEKQEMTPDDLATLLAKDALKDFLKEAEPAIVNTPILTRRDMARYVLFESRQLVCSRWKAILQRQTADVVE
MKKATMLTYLEEQLEKHLGDYEVGLDWDRKNHTIEVIVRLYAENNEQVAIDDVDGTLSEEEFIEFEDGLLFYNPQKSVVDDEEYLVTIPYEGKKGLRKAVLDGFIHYLKVVLDEGQSDLLDFLSDETAEVFELHWEPADFEAMIKKVAETEKEQWIAYPSY
GPGSMSAHSAARRWTNLAGIGSCHPRHHHYPTSTKEVQDAVELVRSQNGKCRVAGAGKSPNTATFTNEHLIHMERMNRILSIDTVAHTITCEAGAVMEEVMRSVDKVGLMVRCVPSYVRTTVGGCIATATHSSGIQCHCLSDYVRGLKIVDGCAQIRTLVAGKDDAELRLAACHLGVMGIVTEVTLEVQPRIQWKLVSQPLLMKDATNAALVAEKVKSTEYYRWWWVPHTDGCYESYGRVESTTGISALPPLPDALTAQDDAPVQLSPAALQEESRTNESAERAGDRSISLIVKSALKYIATDFVRHQVVECSLYAACLCPAIQPYVNKAYRRAFFSAPQVQRGSALECFTFDCLFKQWANEWAIDASRAVEAFNRLRDMIDREGMLLHFPVEFRFTAPDVSDMSPAVGRPTCWIGVVMYRPYGQEARDTRRCYDGFCRVMEEMGGRPHWAKYYDWGHREITATYGDHWERFLALRRRMDPDDIFVNGWFRNLMSPDRVNSTACTP
MGSDKIHHHHHHAYGILGVLAITKDEAVLVAVTGVLSVGQLYGADILKITNVEFISLRTFGSVENVDSRIIDLQRQFIDLKKMFEKIIKKILKNLQRLLSSQMFYFSSLQSYDLTRSAQHRDSHDCSDARFFWNRSLHFSFQRYGIDTDNWLLKCMAGSVLVRVVYVGANTGRVALISRLSCERVGTRFNVRGANYLGNVANFVETEQLLLFDEKECSLLQIRGSIPLFWEQPGVNVGSHKVKLRAFETSLPAYHRHLSQLQHRYGEFAIVNLLGRKEGERVLGDAFKTQHKSSHFAPLVDFIDFDYHAQMKISKEAI
MQQERTVKVSKYLSKHLRHQPERIGLTPDEGGWVEIDALVAAAAAHGFPFTRQELDHVVATNDKRRFAVEGTRIRASQGHSIAVDLRLPVATPPPYLYHGTVARHLEAIRAEGLRPMNRHDVHLSPDRETATRVGARRGRPVVLPVDAATMHRDGHVFHVSANGVWLTQHVPSRYLRFPAPHLEHHHHHH
MSFRIYNTQKWSAEQMAPYLDKVIKSIAYFHKKFPDDYTPQTILNDILKGDKLLWIIVDEQENFMAHVTTELQKLVTGALRAVIVTLGGKGGAPLTKLIPQIEAYYKEKGAKELIIIGRRGWKKSLKSHGYFVNLLEYRKQL
